What all share (experiment): filter binding
Data set [1] deals with T1, I-SceI wild-type (UniProt P03882 1-235).
T1 sequence: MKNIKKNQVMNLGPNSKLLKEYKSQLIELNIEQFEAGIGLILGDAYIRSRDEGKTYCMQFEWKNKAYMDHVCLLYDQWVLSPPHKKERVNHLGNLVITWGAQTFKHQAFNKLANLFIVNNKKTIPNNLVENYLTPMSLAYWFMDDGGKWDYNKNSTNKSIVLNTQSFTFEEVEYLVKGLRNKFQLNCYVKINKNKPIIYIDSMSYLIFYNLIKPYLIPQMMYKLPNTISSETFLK

Data set [2] addresses T1, I-SceI wild-type. The source holds these as a separate data set.
Data set [3] concerns the target T2, I-SceI K223I (UniProt P03882 1-235, K223I).
T2 sequence: T1 sequence with K223I

Data set [4] has as its target T3, I-SceI K122I (UniProt P03882 1-235, K122I).
T3 sequence: T1 sequence with K122I

The target of data set [5] is T2, I-SceI K223I. This is another data set of the same source.
For data set [6], the target named is T3, I-SceI K122I. This is another data set of the same source.

Numbering of substitutions follows the chain as printed. Like-named read-outs stand apart in the source and are kept apart here.

B1: Duplex linear product (upstream cleavage product) (dsDNA)
DNA 1: GGTGAAACACTCGAACGCTAGGGATAA
DNA 2: CCCTAGCGTTCGAGTGTTTCA
By Kd is commonly meant the concentration at which binding is half-saturated. Higher therefore signals lower affinity. In the data set with I-SceI wild-type [1], B1 displayed a Kd of 0.175 ± 0.048 µM.
CAGGGTAATATAGCCAATCCAATGATTGGCTATATTACCCTGTTAT (structured_DNA) [Hairpin product 46-mer (downstream cleavage product)]: the Kd in the data set with I-SceI wild-type [1] was 0.0033 ± 0.0006 µM.

B2: Nicked top DNA strand substrate (structured_DNA)
DNA 1: GGTGAAACACTCGAACGCTAGGGATAA
DNA 2: CAGGGTAATATAGCCAATCCAATGATTGGCTATATTACCCTGTTATCCCTAGCGTTCGAGTGTTTCA
modifications: nick at top-strand cleavage site; 5' phosphate at nick (67-mer)
B2: the Kd in the data set with I-SceI wild-type [1] worked out at 0.0042 ± 0.0011 µM; with I-SceI wild-type [2], 0.0194 ± 0.0007 µM.

B3: 94-mer intact hairpin substrate (structured_DNA)
DNA: GGTGAAACACTCGAACGCTAGGGATAACAGGGTAATATAGCCAATCCAATGATTGGCTATATTACCCTGTTATCCCTAGCGTTCGAGTGTTTCA
With B3, the Kd with I-SceI wild-type [1] worked out at 0.0023 ± 0.0004 µM; with I-SceI K223I [3], 0.0074 ± 0.0013 µM; with I-SceI K122I [4] it was 0.0073 ± 0.0004 µM; with I-SceI wild-type [2], 0.0145 ± 0.0057 µM; with I-SceI K223I [5], 0.0154 ± 0.0003 µM; with I-SceI K122I [6], 0.0173 ± 0.0004 µM.

B4: Nicked bottom DNA strand substrate (structured_DNA)
DNA 1: GGTGAAACACTCGAACGCTAGGGATAACAGGGTAATATAGCCAATCCAATGATTGGCTATATTACCCTGTTAT
DNA 2: CCCTAGCGTTCGAGTGTTTCA
modifications: nick at bottom-strand cleavage site; 5' phosphate at nick (21-mer)
For the molecule B4, the Kd with I-SceI wild-type [1] stood at 0.0032 ± 0.0002 µM; with I-SceI wild-type [2], 0.0132 ± 0.0021 µM.

The values above are taken from paper PMC2700736.
